The record followed here is publication PMC12615815, “GroEL/ES chaperonin unfolds then encapsulates a nascent protein on the ribosome” (Nature Communications, 2025).

Test [1] has as its target RNC_(1-510mut): stalled 70S ribosome:nascent chain complex with β-galactosidase 1-510 carrying I141N and G353D (E. coli). As to the kind of experiment: co-sedimentation; RNC first incubated with GroEL and GroES (20 min, 30 °C), then 1 mM ATP, 1 mM BeSO4, 10 mM NaF (10 min, 30 °C); 35% sucrose cushion; pellet by immunoblot (GroEL, GroES, S2) and iBAQ mass spectrometry. A general note: A western blot detects proteins with antibodies after separation by electrophoresis.

The target is the same in test [2]. As to the kind of experiment: co-sedimentation; RNC with GroEL, no GroES and no ATP/BeFx; pellet quantified by iBAQ mass spectrometry, normalised to the average of the ribosomal proteins; n = 3.
For test [3], the target named is T1, Ribosomal stalk protein L7/L12 (E. coli, UniProt P0A7K2 1-121).
T1 construct: ribosomal protein L7/L12, E. coli, as part of the ribosome; Cross-linked while part of the 70S ribosome or RNC; also called stalk complex; source: endogenous, in E. coli 70S ribosomes (bought: NEB) and in RNCs purified from E. coli
The experiment in a line: cross-linking; XL-MS: RNC_(1-510mut) with 5 µM GroEL and 10 µM GroES, then 1 mM ATP, 1 mM BeSO4, 10 mM NaF; 1 mM DSBU 1 h at 25 °C. The following applies: both partners purified.

Consider “GroEL (V381W, A384W, V387W) (from UniProt P0A6F5 2-525) (natural protein)”, for which the results for the stoichiometry N (GroEL subunits per ribosome) in test [1] and in test [2] were 6.7 and 9.8, respectively.

B1: GroES (L49W) (natural protein, E. coli, UniProt P0A6F9 1-97, looked up)
chain: MNIRPLHDRVIVKRKEVETKSAGGIVLTGSAAAKSTRGEVLAVGNGRIWENGEVKPLDVKVGDIVIFNDGYGVKSEKIDNEEVLIMSESDILAIVEA
notes: GroES, E. coli co-chaperonin subunit (10.5 kDa as printed); tryptophan mutant used for quantification; also called GroES 7-mer; source: E. coli BL21(DE3), purified (StrepTactin, 3C cleavage, Superdex 200, GSTrap); not shown: double StrepII, N-terminal, cleaved
In the case of B1, the binding result in test [3] was “binds”.
